Reference: paper PMC7847548, “Functional Characterization of the γ-Aminobutyric Acid Transporter from Mycobacterium smegmatis MC^2 155 Reveals Sodium-Driven GABA Transport” (Journal of Bacteriology, 2020)

Target: the molecule itself
Assay: SEC-MALS; SEC-MALLS, three-detector method; Superose 6 column in 20 mM HEPES pH 7.0, 100 mM NaCl, 5% glycerol, 0.0102% DMNPG; 30 ul of MsGabP at 3 mg/ml injected; protein-detergent complex

B1: γ-aminobutyric acid (GABA) permease GabP from Mycobacterium smegmatis MC^2 155 (natural protein, UniProt A0R5H8 1-473, looked up)
chain: MLESRSDLSSSDEPRSGLARSLKTRHMTMIAIGGAIGAGLFVGSGAVIKTAGPAAIVSYVVAGALVLCTLRMLGEMVVAKPRTGAFADYARIGIGPWAGFTLGWLYWYYYVIIIAVEAVAGAQILAVWVGLPLWLMAMLLMAALTLTNLISVRWFGEFEFWFSGIKVAAIVSFIVVGLLWVFGVWPGDTNGLTNLVAHGGFAPNGFGSIFGAVVVVIFAFGGAEIVTIAAAESAEPAKSVARATTGVIWRIILFYVGSIFLVVCILPWNDASVLSSPYVAALEKLQIPGAGLIMNIVILTAVLSVLNSSIYTSSRMLRVLASHGDAPQWLVRTNTRGVPTRAILASTVVGWVSVVLAYIAPDSLFLFLVNSCGVVAIFMYVMIGVSELRVRRAIEREDPAKLTLKMWFFPYLPIAVIACFVLVLVAMLFDADQRVQLLASVVSLAVVLLAYALRKRHGQVPATDTKQAARTDE
notes: GABA permease GabP, Mycobacterium smegmatis MC^2 155, gene msmeg_6196, amplified from genomic DNA and cloned NheI/SbfI into pL33 (based on pTTQ18); predicted molecular mass 50.7 kDa; pL33 encodes a C-terminal His tag preceded by an HRV-3C protease site; the tag was cleaved on the column, so residues of the cleavage site and of the cloning sites may remain; also called MsGabP; gene product of …
For B1, the “stoichiometry N” value was 2.
